Test results: US11241387B2, “Carrier-binding agent compositions and methods of making and using the same” (Mayo Foundation for Medical Education and Research, priority 2015, dated 2022)

Tests used:
ABX = biological target: T1, ABX (Homo sapiens, UniProt P02768); assay: Bio-Layer Interferometry (BLItz) binding of antibody to ABX; details: pH 3, 5, 7, 9; BEV also RT, 37° C. and 58° C.
T1 construct: purchased Celgene Corporation, Summit, N.J
Description: The association and dissociation constants were calculated using the BLItz software.

[1] = test system: Daudi human lymphoma cells; assay: Daudi xenotransplant model in athymic nude mice; assay type: in vivo; details: ABX 30 mg/kg, rituximab 12 mg/kg, or AR160
Description: (§1) To test tumor efficacy, 1×10^6 A375 human melanoma cells were implanted into the right flank of athymic nude mice (Harlan Sprague Dawley, Indianapolis, Ind.). […] Tumor size was monitored 3 times/week and tumor volume was calculated with the following equation: (length×width)/2. Mice were sacrificed when the tumor size equaled 10% of the mouse body weight or about 2500 mm^3. The day 7 percent change from baseline was calculated as follows: [(tumor size on treatment day-tumor size on day 7)/tumor size on treatment day]×100.

CD20 = biological target: T2, CD20 (Homo sapiens, UniProt P11836); assay: Blocking of fluorescent anti-CD20 labeling of Daudi cells (flow cytometry); assay type: binding; details: Daudi cells pretreated prior to CD20 labeling
T2 construct: host or cells: Daudi B-cell lymphoma cells
T2 sequence (P11836 1-297): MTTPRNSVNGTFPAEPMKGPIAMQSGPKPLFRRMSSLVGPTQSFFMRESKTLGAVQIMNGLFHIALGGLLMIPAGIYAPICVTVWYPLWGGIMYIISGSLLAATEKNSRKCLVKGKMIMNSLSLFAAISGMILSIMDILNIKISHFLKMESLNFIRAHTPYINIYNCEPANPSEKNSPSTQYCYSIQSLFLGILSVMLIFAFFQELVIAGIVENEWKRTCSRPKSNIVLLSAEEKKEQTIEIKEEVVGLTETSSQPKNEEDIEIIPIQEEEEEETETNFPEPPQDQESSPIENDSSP
Description: FIG. 12 depicts the results of an experiment in which CD20 positive Daudi lymphoma cells were labeled with fluorescent tagged anti-human CD20 or isotype matched control in panels F and A, respectively, and analyzed by flow cytometry.
CD20 positive Daudi lymphoma cells were labeled with fluorescent tagged anti-human CD20 or isotype matched control in panel F and A, respectively, and analyzed by flow cytometry.

[2] = test system: A375 human melanoma cells; assay: A375 human melanoma xenograft in athymic nude mice; assay type: in vivo
Description: In vivo experiments were performed at least 2 times. The number of mice required for those experiments was determined by power analysis. Mouse tumors were measured 2-3 times/week and mice were sacrificed when the tumor was 10% by weight. […] The end point of the mouse studies was median survival. Kaplan-Meier curves were generated and Mantle-Cox test was performed to determine significance of median survival between treatment groups. The in vitro results presented are representative of at least 5 repeated experiments. Statistical analyses of in vitro and in vivo percent change from baseline experiments were done using the Student's t-test.
as §1

Substance | pH and temperature dependence of binding affinity to ABX (ABX) | median survival [1] [days] | blocking of CD20 binding of fluorescent anti-CD20 (CD20) | therapeutic effect on tumor volume ([2]; 12 mg/kg dose) | median survival ([2]; BEV 12 mg/kg, ABX 30 mg/kg, BEV followed by ABX, or AB160) [days]
rituximab | decreased with higher pH | 12 | specifically blocked | – | –
bevacizumab | highest binding affinity observed when the particles are formed at pH 5 and 58 °C | – | – | not therapeutic | 14
